Source: US20250250357A1 (NANJING ZAIMING PHARMACEUTICAL, published 2025)

T1: monkey MSLN full-length protein (NCBI: XP_028696439.1) expressed on HEK293T-monkey MSLN cells (monkey)
T1 construct: Whole encoded precursor
T1 chain: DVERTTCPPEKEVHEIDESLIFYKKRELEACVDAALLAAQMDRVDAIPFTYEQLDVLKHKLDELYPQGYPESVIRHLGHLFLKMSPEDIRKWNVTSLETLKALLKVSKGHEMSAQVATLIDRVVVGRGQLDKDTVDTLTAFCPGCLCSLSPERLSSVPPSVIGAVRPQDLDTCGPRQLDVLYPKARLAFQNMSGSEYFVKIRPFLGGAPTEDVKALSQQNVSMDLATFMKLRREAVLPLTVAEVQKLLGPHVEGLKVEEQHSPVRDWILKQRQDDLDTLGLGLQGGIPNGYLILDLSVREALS

B1: S009-F8-36.12 (antibody, human IgG1, kappa, V domains shown)
VH: EVQLQQSGPELVKPGASVKISCKASGYTFTDYYMNWVKQSHGKSLEWIGDINPNNGGTSYNQKFKGKATLTVDKSSSTAYMELRSLTSEDSAVYYCASWGYGSSSRGYFDYWGQGTTLTVSS
VL: QIVLSQSPAILSASPGEKVTMTCRASSSVSYMHWYQQKPGSSPKPWIYATSNLASGVPARFSGSGSGTSYSLTISRVEAEDAATYYCQQWSSNPWTFGGGTKLEIKR
notes: human-murine chimeric antibody, human IgG1/kappa constant regions
B2: S009-F8-32.3 (antibody, human IgG1, kappa, V domains shown)
VH: QVQLKESGPGLVAPSQSLSITCTVSGFSLSSYAISWVRQPPGKGLEWLGVIWTGGGTNYNSALKSRLSISKDNSKSQVFLKMNSLQTDDTARFYCARNNYGRLDYAMDYWGQGTSVTVSS
VL: DVVMTQTPLSLPVSLGDQASISCRSSQSLVHGNGNTYLHWYLQKPGQSPKLLIYKVSNRFSGVPDRFSGSGSGTDFTLKISRVETEDLGVYFCSQSTHVPFTFGSGTKLEIKR
notes: as for B1
B3: S009-F8-24.14 (antibody, human IgG1, kappa, V domains shown)
VH: EFQLQQSGPELVKPGASVKISCKASGYSFTDYNMNWVKLSNGKSLEWIGVIIPNYGTSSYNQKFKGKATLTVDQSSSTAYMQLNSLTSEDSAVYYCARWDNYYGSSLDYWGQGTTLTVSS
VL: DIVMTQSQKFMSTTVGDRVSITCKASQNVGTAVAWYQQKPGQSPKLLIYSASNRYTGVPDRFTGSGSGTDFILTISNMQSEDLADYFCQQYSSYPLTFGAGTKLELKR
notes: as for B1
B4: S009-F1.56.1 (antibody, human IgG1, kappa, V domains shown)
VH: EVQLQQSGAEVVKPGASVKLSCTASGFNIRHTYMHWVKQRPEQGLEWIGRIDPANGNTEYDPKFQGKATITADTSSNTAYLQLSSLTSEDTAVYYCARDGWYIDVWGAGTTVTVSS
VL: DIVMSQSPSSLAVSVGEKVTMSCKSSQSLLYSNNQKNYLAWYQQKPGQSPKLLIYWASTRESGVPDRFTGSGSGTDFTLTISSVKAEDLAVYYCQRYYSYPWTFGGGTKLEIKR
notes: as for B1
B5: S009-F1.35.24 (antibody, human IgG1, kappa, V domains shown)
VH: EVQLQQSEPELVKPGASVRISCKASGYSFTDYYMHWVKQSPENRLEWIGEINPSTGGTSYNPKFKDKATLTVDKSSSTAYMQLKSLTSEESAVYYCTRYHYYGSSSYVMDYWGQGTSVTVSS
VL: QIVLTQSPAILSASPGERVTMTCSASSSVYHMHWFQQKSGTSPKRWVYDTSKLASGVPARFSGSGSGTSYSLTISSMEAEDAATYYCQHWRTNPLTFGAGTKLELKR
notes: as for B1
B6: S009-F1.2.12 (antibody, human IgG1, kappa, V domains shown)
VH: QVQLKQTGPGLVQPSQSLSITCTVSGFSLTNYAVHWVRQSPGKGLEWLGVIWSGGATDYNTVFISRLSISKDNSKSQVFFKVNSLQVDDTAIYYCARTGSGYAMDYWGQGTSVTVSS
VL: DIVLTQSPATLSVTPGDRVSLSCRTSHNVNTYLHWYQQKSHESPRLLIKYASQSISEIPSRFSGSGSGTNFTLSINSVETEDFGMYFCHQTNRWPLTFGAGTKLELKR
notes: as for B1
B7: S009-F1.7.14 (antibody, human IgG1, kappa)
heavy: not shown
light: QIVLTQSPAIMSASPGEKVTISCSASSSVSYMYWYQQKPGSSPKPWISRTSNLASGVPARFSGSGSGTSYSLTISSMEAEDAATYYCQQYHSYPPTLGAGTKLELKRTVAAPSVFIFPPSDEQLKSGTASVVCLLNNFYPREAKVQWKVDNALQSGNSQESVTEQDSKDSTYSLSSTLTLSKADYEKHKVYACEVTHQGLSSPVTKSFNRGEC
notes: as for B1

biological target: T2, human MSLN-FL-his protein (human, UniProt Q13421 296-580); test: competitive ELISA; row F8-33.12; also: test concentration or dose not given here
T2 construct: made in HEK293E cells, purified on nickel column; also called hMSLN-FL-his; human MSLN full-length protein; not shown: His tag
T2 sequence (Q13421 other isoform, or with tags, fused parts or gaps): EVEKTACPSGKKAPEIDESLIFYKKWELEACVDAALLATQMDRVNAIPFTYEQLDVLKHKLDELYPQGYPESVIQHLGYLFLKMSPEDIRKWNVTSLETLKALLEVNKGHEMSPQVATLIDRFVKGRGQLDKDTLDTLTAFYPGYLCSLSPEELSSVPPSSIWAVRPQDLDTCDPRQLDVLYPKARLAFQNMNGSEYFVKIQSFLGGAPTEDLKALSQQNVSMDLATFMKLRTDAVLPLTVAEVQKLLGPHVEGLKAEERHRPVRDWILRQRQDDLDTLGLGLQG

competition rate [%] | Binder
8.3 | B1
56.5 | B2
27.8 | B3

biological target: T3, human MSLN full-length protein (NCBI: AAH09272.1) expressed on HEK293T-hMSLN-B8 cells (human, UniProt Q13421 296-598); test: FACS on HEK293T-hMSLN-B8 cells
T3 construct: Whole encoded precursor
T3 sequence (Q13421 other isoform, or with tags, fused parts or gaps limits assumed): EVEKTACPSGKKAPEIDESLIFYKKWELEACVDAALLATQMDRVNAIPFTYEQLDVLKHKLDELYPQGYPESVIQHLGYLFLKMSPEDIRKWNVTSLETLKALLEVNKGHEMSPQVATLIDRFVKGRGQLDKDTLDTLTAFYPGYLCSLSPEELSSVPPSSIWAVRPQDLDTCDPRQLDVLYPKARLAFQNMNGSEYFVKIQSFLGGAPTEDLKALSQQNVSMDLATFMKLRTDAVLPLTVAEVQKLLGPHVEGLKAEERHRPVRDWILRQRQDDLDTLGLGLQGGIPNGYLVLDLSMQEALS
Description: (§1) The desired cells were expanded to the logarithmic growth phase in a T-75 cell culture flask. […] After the cells from the previous step were subjected to cell counting, the cell pellet was resuspended to 2×10⁶ cells/mL in a blocking buffer of [PBS+2% (w/w) BSA] and added into a 96-well FACS reaction plate at 50 μL/well. A chimeric antibody (a sample to be tested) was added at 50 μL/well, and the plate was incubated on ice for 2 h. […] After the plate was centrifuged and washed 5 times with a PBST buffer, assay and analysis were performed by FACS (FACS CantoII, purchased from BD). Data analysis was performed by software (Flowjo) to obtain the mean fluorescence intensity (MFI) of the cells.

EC50 [nM] | Maximum mean fluorescence intensity | Binder
1.59 | 96300 | B4
2.93 | 109000 | B5
~0.86 | 87200 | B6
3.4 | 70300 | B7

biological target: T2, human MSLN-FL-his protein; test: competitive ELISA; row Tab142; also: test concentration or dose not given here

competition rate [%] | Binder
17.4 | B1
40.6 | B2
22.9 | B3

biological target: T2, human MSLN-FL-his protein; test: competitive ELISA; row F8-22.23; also: test concentration or dose not given here

competition rate [%] | Binder
-3.1 | B1
96.6 | B2
80.3 | B3

biological target: T2, human MSLN-FL-his protein; test: competitive ELISA; row F8-8.22; also: test concentration or dose not given here

competition rate [%] | Binder
5.9 | B1
94.4 | B2
74.5 | B3

biological target: T4, human MSLN protein endogenously expressed on OVCAR3 tumor cells (human, UniProt Q13421 296-598); test: FACS on OVCAR3 cells
T4 construct: whole, on cells; endogenous expression on a tumor cell line; also called human mesothelin
T4 sequence (Q13421 other isoform, or with tags, fused parts or gaps): as the sequence (Q13421 other isoform, or with tags, fused parts or gaps limits assumed) above, with P14R counted along it

EC50 [nM] | Maximum mean fluorescence intensity | Binder
15.2 | 2510 | B1
14.7 | 8270 | B2
11.5 | 4700 | B3

biological target: T5, human MSLN-R3 protein (Met487-Ser606 of NCBI AAH09272.1) expressed on HEK293T-hMSLN-R3 cells (human, UniProt Q13421 487-606); test: FACS on HEK293T-hMSLN-R3 cells
T5 construct: also called Region3
T5 sequence (Q13421 495-614): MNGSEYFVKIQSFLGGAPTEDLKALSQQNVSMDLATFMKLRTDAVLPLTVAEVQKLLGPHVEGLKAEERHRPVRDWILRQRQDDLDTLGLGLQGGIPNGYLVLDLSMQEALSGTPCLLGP
Description: as §1

Maximum mean fluorescence intensity | binding result | Binder
363 | no binding | B4
680 | no binding | B5
239 | no binding | B6
239 | no binding | B7

biological target: T2, human MSLN-FL-his protein; test: SPR (Biacore), antibody captured on Protein A chip;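 also: flow cell at 25 °C, antigen injected for 240 s at five concentrations from 200 nM downward, dissociation followed up to 600 s, double-referenced, fitted with Langmuir 1:1 model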
Description: The flow cell was set at 25° C. The sample block was set at 16° C. Both were pretreated with the running buffer. In each cycle, first, the antibody to be tested was captured using the Protein A chip, and then a single concentration of human MSLN-FL-his protein was injected. […] The association was determined by injecting different concentrations of human MSLN-FL-his in solution for 240 s on end, wherein the flow rate was 30 μL/min, and the protein was diluted in a 1:1 dilution ratio from 200 nM (see detailed results for actual concentrations tested) to obtain 5 concentrations in total. The dissociation phase was monitored for up to 600 s and triggered by switching from the sample solution to the running buffer. The surface was regenerated by washing with 10 mM glycine solution (pH 1.5) at a flow rate of 30 μL/min for 30 s. The difference in bulk refractive index was corrected by subtracting the responses obtained from the goat anti-human Fc surface. Blank injections were also subtracted (=double reference). To calculate the apparent KD and other kinetic parameters, the Langmuir 1:1 model was used.

Kd [nM] | koff [s⁻¹] | kon [M⁻¹ s⁻¹] | Binder
103 | 0.0122 | 118000 | B1
6.5 | 0.00331 | 510000 | B2
9.13 | 0.00501 | 549000 | B3

biological target: T2, human MSLN-FL-his protein; test: competitive ELISA; row F8-36.12; also: test concentration or dose not given here

competition rate [%] | Binder
61.5 | B1
-164 | B2
-142 | B3

biological target: T2, human MSLN-FL-his protein; test: competitive ELISA; row F8-24.14; also: test concentration or dose not given here

competition rate [%] | Binder
10.3 | B1
95 | B2
77 | B3

biological target: T6, human MSLN protein endogenously expressed on OVCAR3 tumor cells (human, UniProt Q13421 296-598); test: FACS on OVCAR3 cells
T6 construct: whole, on cells; Endogenous target on OVCAR3 cells; kept apart from the recombinant full-length construct; also called mesothelin
T6 sequence (Q13421 other isoform, or with tags, fused parts or gaps): as the sequence (Q13421 other isoform, or with tags, fused parts or gaps limits assumed) above, with P14R counted along it
Description: as §1

EC50 [nM] | Maximum mean fluorescence intensity | Binder
0.67 | 11700 | B4
2.08 | 10500 | B5
1.87 | 9620 | B6
– | 2250 | B7

biological target: T2, human MSLN-FL-his protein; test: competitive ELISA; row F8-32.3; also: test concentration or dose not given here

competition rate [%] | Binder
9.8 | B1
79.3 | B2
57.6 | B3

Biological target: T1, monkey MSLN full-length protein (NCBI: …)
Test: FACS on HEK293T-monkey MSLN cells
Description: as §1

EC50 [nM] | Maximum mean fluorescence intensity | Binder
0.79 | 43100 | B4
4.75 | 52100 | B5
1.39 | 29200 | B6
5.69 | 47500 | B7

biological target: T2, human MSLN-FL-his protein; test: competitive ELISA; row F8-28.23; also: test concentration or dose not given here

competition rate [%] | Binder
-10.7 | B1
102 | B2
95 | B3

biological target: T2, human MSLN-FL-his protein; test: competitive ELISA; row F8-9.16; also: test concentration or dose not given here

competition rate [%] | Binder
-47.7 | B1
-113 | B2
-65.5 | B3

biological target: T7, human MSLN-R3 protein expressed on HEK293T cells (HEK293T-hMSLN-R3) (human, UniProt Q13421 487-606); test: FACS on HEK293T-hMSLN-R3 cells;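 also: chimeric antibodies incubated with cells on ice for 2 h, binding read by flow cytometry as mean fluorescence intensity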
T7 construct: C-terminal limit uncertain
T7 sequence (Q13421 495-614): as the sequence (Q13421 495-614) above
Description: as §1

EC50 [nM] | Maximum mean fluorescence intensity | binding result | Binder
11 | 7970 | – | B1
– | 50 | no binding | B2
– | 82 | no binding | B3

biological target: T2, human MSLN-FL-his protein; test: competitive ELISA; row F8-29.1; also: test concentration or dose not given here

competition rate [%] | Binder
9.4 | B1
65.9 | B2
43.7 | B3

biological target: T2, human MSLN-FL-his protein; test: competitive ELISA; row Tab021; also: test concentration or dose not given here

competition rate [%] | Binder
6.4 | B1
10.9 | B2
5.3 | B3
